Laboratory results taken from patent US10444224B2, “Method for RNA detection and quantification” (Cornell University, priority 2011, dated 2019).
Changes are numbered by the printed parent chain. Entries after “also recorded” stand apart in the source; their conditions may differ.

Experiments:
[1] = test system: HEK293T cells expressing 5S-Spinach; assay: Live mammalian cell imaging of Spinach-tagged 5S RNA; assay type: cell-based, human
Protocol: HEK293 cells cultured on 24-well glass-bottom dishes were transfected with 0.2 μg of pAV-5S construct expressing full length human 5S RNA from its endogenous promoter fused through its 3′ end with either a control sequence (lambda fragment ˜400 nt) or the Spinach aptamer sequence using FuGene 6 (Roche) per manufacturer's instructions. Imaging experiments were performed 48 hours after transfection. Thirty minutes prior to experiment, HEK293 cell media was replaced with imaging media (DMEM with no phenol red or vitamins and supplemented with 25 mM HEPES, 5 mM MgSO4, and 10 μg/ml Hoechst 33342) and 20 μM DFHBI or vehicle were added to the cells to promote RNA-fluorophore complex formation. To induce stress granule formation, cells were treated with 100 mM MgSO4 or 600 mM sucrose for 30 minutes prior to imaging. Live fluorescence images of HEK293 cells were taken with a CoolSnap HQ2 CCD camera through a 100× oil objective mounted on a Nikon TE2000 microscope and analyzed with the NIS-Elements software. A filter cube typically used for fluorescein/EGFP with sputter coated excitation filter 470/40, dichroic mirror 495 (long pass), and emission filter 525/50 (Chroma Technology) was used to detect Spinach.

[2] = literature value used as reference; cited from earlier work
[3] = Tolerance of Spinach stem-loop 2 to mutation, assayed by DFHBI fluorescence; assay type: biochemical
Protocol: Secondary structure prediction was performed using Mfold online software. Mutated and truncated RNAs were created by ordering single stranded DNA templates (Integrated DNA Technologies) with the desired mutations or truncations and PCR amplifying these sequences to create double stranded DNA templates using primers which included a 5′ T7 promoter sequence. PCR products were then purified with PCR purification columns (Qiagen) and used as templates for in vitro T7 transcription reactions (Epicentre).
To determine if stem-loop 2 primarily has a structural role in Spinach, mutations were introduced at the stem-loop 2 positions shown in FIG. 11A to test the tolerance of Spinach to mutations at these positions. This was assayed by DFHBI fluorescence. In these experiments, the minimized Spinach structure (SEQ ID NO: 8) in which stem-loop 2 is predicted to sit adjacent to the large internal loop (FIG. 11A). […] To determine if stem-loop 2 can be swapped with a different stem-loop with similar stability without perturbing Spinach-induced DFHBI fluorescence, the UUCG loop sequence was replaced with GAAA and the 4-base pair stem was replaced with a different but still complementary 4-base pair stem (FIG. 11A, SEQ ID NO: 9). […] However, when mismatched bases were inserted in the stem region to prevent the formation of a duplex, DFHBI fluorescence was lost (FIG. 11B).

[4] = Magnesium dependence of 24-2-DFHBI fluorescence; assay type: biochemical
Excerpt: FIGS. 3A-C illustrate the secondary structures of three RNAs: the original 24-2 structure (3A, SEQ ID NO: 5), a minimized structure 24-2-min (3B, SEQ ID NO: 7), and a first generation derivative of 24-2, designated “Spinach” (3C, SEQ ID NO: 6). RNA structure is shown as predicted by Mfold web-based software (Zuker, “Mfold Web Server for Nucleic Acid Folding and Hybridization Prediction,” Nucl. Acids Res. 31(13): 3406-3415 (2003), which is hereby incorporated by reference in its entirety). In FIG. 3A, bases that could be removed without significant loss in fluorescence are indicated in purple, which includes several bases from the largest loop and largest stem. A-U, G-U and any mismatched base pairs were mutated to G-C base pairs and tested for their effect on 24-2 fluorescence. G-C mutations that reduced 24-2 fluorescence are indicated in red, those which had no effect are indicated by asterisk (*), and those which increased the fluorescence of 24-2 are indicated in green. Base substitutions indicated by an asterisk (*) helped to validate structural predictions because substituting one base pair for another (e.g. A-U for G-C) had negligible effect or increased fluorescence. […] FIG. 3D illustrates the magnesium dependence of 24-2-DFHBI fluorescence. The fluorescence of the 24-2-DFHBI complex was measured at pH 7.4 in the presence of increasing magnesium concentrations. […]

[5] = Excitation and emission spectra of the 24-2-DFHBI complex; assay type: physicochemical; conditions: 24-2 bound to DFHBI
Excerpt: Unless otherwise stated, all chemistry reagents were purchased from Acros Organics and all cell culture reagents were purchased from Invitrogen. Commercially available starting reagents were used without further purification. DFHBI was synthesized as described in PCT Application Publ. No. WO/2010/096584 to Jaffrey and Paige; Paige and Jaffrey, “RNA Mimics of Green Fluorescent Protein,” Science 333(6042):642-646 (2011), each of which is hereby incorporated by reference in its entirety. Flash chromatography was conducted with 200-400 mesh silica gel 60 (EMD) and with ACS or HPLC grade solvents (Fisher). NMR spectra were recorded on a Bruker DMX-500 spectrometer at 500 MHz. Chemical shifts were reported as parts per million (ppm) downfield from an internal tetramethylsilane standard ([…] for ^1H NMR) or from solvent references. […] UPLC was performed at a flow rate of 0.5 ml/min (monitored with a PDA from 210-500 nm) using a Waters C18 column. Absorbance spectra were recorded with a Thermo Scientific NanoDrop 2000 spectrophotometer with cuvette capability. Fluorescence excitation and emission spectra were measured with a Perkin Elmer LS-55 fluorescence spectrometer.
After eight rounds of SELEX at pH 8.0 using DFHBI-agarose, clones were identified that switched on DFHBI fluorescence. […]

[6] = Spinach-based RNA sensor fluorescence in response to guanine; assay type: biochemical

Molecule: CCC(=C/[C@H](C)C/C=C/C(C)=C/[C@@H](C)C(=O)[C@@H](C)[C@H](O)[C@@H](C)C/C(C)=C/C(=O)O)/C=C/[C@@H]1OC(=O)C=C[C@@H]1C [leptomycin B]
- effect on 5S-Spinach localization ([1]; after washout of ML-60218): 5S-Spinach accumulates in the nucleus

Molecule: lucifer yellow
- absolute quantum yield of reference fluorophore [2]: 0.21

Molecule: Cc1c(-c2cc(NS(=O)(=O)c3ccccc3Cl)n(C)n2)sc2ccc(Cl)cc12 [ML-60218]
- effect on 5S-Spinach fluorescence ([1]; Pol III inhibitor treatment): reduces 5S-Spinach fluorescence to baseline levels

Molecule: Cc1cc2cc3cc(C)c(N)cc3nc2cc1N [acridine yellow]
- absolute quantum yield of reference fluorophore [2]: 0.47

Molecule: SEQ ID NO: 16: mismatch stem-loop structure introduced into Spinach; three mismatched nucleotides prevent duplex formation (AUGCUUCGGACG; listed as RNA, chemistry not given here)
- DFHBI fluorescence of stem-loop 2 variant relative to Spinach / original stem-loop 2 [3]: reduces fluorescence intensity to baseline

B1: 24-2: RNA aptamer clone from SELEX that switches on DFHBI fluorescence (nucleic acid)
chain: GGGAGACGCAACUGAAUGAAAUGGUGAAGGACGGGUCCAGGUGUGGCUGCUUCGGCAGUGCAGCUUGUUGAGUAGAGUGUGAGCUCCGUAACUAGUCGCGUCAC
modifications: listed as RNA, chemistry not given here
notes: RNA aptamer clone from SELEX that switches on DFHBI fluorescence
- fraction of maximal fluorescence ([4]; 0.1 mM magnesium): greater than 50%
- magnesium concentration at maximal fluorescence ([4]; pH 7.4): 3 mM
- emission peak [5]: 501 nm
- excitation peak [5]: 469 nm

B2: SEQ ID NO: 8: derivative (minimized) Spinach sequence containing a shortened stem-loop 2 (nucleic acid)
chain: GACGCGACUGAAUGAAAUGGUGAAGGACGGGUCCAGCUGCUUCGGCAGCUUGUUGAGUAGAGUGUGAGCUCCGUAACUAGUCGCGUC
modifications: listed as RNA, chemistry not given here
- DFHBI fluorescence of stem-loop 2 variant relative to Spinach / original stem-loop 2 [3]: essentially identical fluorescence

B3: SEQ ID NO: 9: Spinach derivative with a replacement stem-loop at stem-loop 2 (nucleic acid)
chain: B2 chain with C37G, U38C, G39A, U41G, U42A, C43A, G44A, C46U, A47G, G48C
modifications: listed as RNA, chemistry not given here
- DFHBI fluorescence of stem-loop 2 variant relative to Spinach / original stem-loop 2 [3]: did not reduce DFHBI fluorescence; also recorded: nearly identical fluorescence intensities

B4: guanine sensor: Spinach-based turn-on RNA sensor for guanine (nucleic acid)
chain: GACGCGACUGAAUGAAAUGGUGAAGGACGGGUCCAGAUAAUCGCGUGGAUAUGGCACGCAAGUUUCUACCGGGCACCGUAAAUGUCCGACUCUUGUUGAGUAGAGUGUGAGCUCCGUAACUAGUCGCGUC
modifications: chemistry not given here
- increase in fluorescence in the presence of guanine ([6]; 0.1 μM RNA, 10 μM DFHBI, 100 μM Gua, versus no guanine): 32 fold
- EC50 ([6]; dose-response, 10 μM fluorophore, read-out: half-maximal fluorescence (EC50), guanine): 1.5 µM
